Common to all, as to assay: cell-based or functional assay
Assay [1] addresses T1, human glucose-dependent insulinotropic peptide (gastric inhibitory polypeptide) receptor (human, UniProt P48546 22-466).
T1 sequence (looked up): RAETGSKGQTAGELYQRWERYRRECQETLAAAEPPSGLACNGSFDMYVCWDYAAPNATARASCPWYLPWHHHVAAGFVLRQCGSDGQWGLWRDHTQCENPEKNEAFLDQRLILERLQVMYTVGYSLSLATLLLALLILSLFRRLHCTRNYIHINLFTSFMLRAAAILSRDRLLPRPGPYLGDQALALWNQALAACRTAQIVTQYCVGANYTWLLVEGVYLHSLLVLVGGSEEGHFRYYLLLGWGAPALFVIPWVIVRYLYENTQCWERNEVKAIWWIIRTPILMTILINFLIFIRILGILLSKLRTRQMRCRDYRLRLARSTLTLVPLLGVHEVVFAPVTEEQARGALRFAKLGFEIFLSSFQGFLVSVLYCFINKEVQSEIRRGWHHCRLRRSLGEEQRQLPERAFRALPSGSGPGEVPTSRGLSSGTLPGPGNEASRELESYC

Assay [2] has as its target T2, human glucagon receptor (human, UniProt P47871 26-477).
The target in assay [3] is T3, human GLP-1 receptor (human, UniProt P43220 24-463).
In assay [4] the target is T4, human glucose-dependent insulinotropic peptide (gastric inhibitory polypeptide) receptor (human) (UniProt P48546).
T4 sequence (looked up): T1 sequence (looked up)

The target of assay [5] is T2, human glucagon receptor. The source holds these as a separate data set.
Assay [6] deals with T3, human GLP-1 receptor. The source holds these as a separate data set.
Target sequence in this assay (P43220 24-463): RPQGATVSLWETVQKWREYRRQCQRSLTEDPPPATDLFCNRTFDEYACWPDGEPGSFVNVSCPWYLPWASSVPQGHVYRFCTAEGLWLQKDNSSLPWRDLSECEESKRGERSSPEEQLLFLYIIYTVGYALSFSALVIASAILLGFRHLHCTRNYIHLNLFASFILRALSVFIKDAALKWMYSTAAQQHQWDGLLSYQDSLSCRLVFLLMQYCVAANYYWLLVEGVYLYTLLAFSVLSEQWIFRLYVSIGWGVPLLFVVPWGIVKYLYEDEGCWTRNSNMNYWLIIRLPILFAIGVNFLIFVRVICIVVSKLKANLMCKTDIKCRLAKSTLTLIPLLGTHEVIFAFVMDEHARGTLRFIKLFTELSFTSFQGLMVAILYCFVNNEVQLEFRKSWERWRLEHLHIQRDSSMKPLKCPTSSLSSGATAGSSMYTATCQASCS
Assay [7] concerns the target T1, human glucose-dependent insulinotropic …. The source holds these as a separate data set.
For assay [8], the target named is T2, human glucagon receptor. This is another data set of the same source.
The target of assay [9] is T3, human GLP-1 receptor. This is another data set of the same source.
A further assay addresses mouse glucagon receptor (mouse, UniProt Q61606 27-485).
The target in another assay is rat glucagon receptor (rat, UniProt P30082 27-485).
Sequence of rat glucagon receptor (P30082 27-485): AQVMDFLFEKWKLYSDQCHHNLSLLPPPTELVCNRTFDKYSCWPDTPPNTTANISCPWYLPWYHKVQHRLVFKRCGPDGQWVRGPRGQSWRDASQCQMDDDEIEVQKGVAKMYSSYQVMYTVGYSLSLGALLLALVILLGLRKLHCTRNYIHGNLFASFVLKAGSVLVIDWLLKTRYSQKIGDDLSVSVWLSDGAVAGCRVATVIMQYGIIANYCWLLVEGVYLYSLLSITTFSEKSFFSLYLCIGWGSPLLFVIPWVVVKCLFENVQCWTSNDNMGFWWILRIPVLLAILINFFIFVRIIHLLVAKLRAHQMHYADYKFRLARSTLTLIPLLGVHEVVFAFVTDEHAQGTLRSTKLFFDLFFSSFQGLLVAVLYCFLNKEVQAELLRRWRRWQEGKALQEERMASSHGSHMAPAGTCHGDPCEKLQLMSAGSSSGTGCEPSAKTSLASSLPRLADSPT
In assay [10] the target is T3, human GLP-1 receptor. This is another data set of the same source.
The target of another assay is T5, mouse GLP-1 receptor (mouse, UniProt O35659 22-463).
T5 sequence (looked up): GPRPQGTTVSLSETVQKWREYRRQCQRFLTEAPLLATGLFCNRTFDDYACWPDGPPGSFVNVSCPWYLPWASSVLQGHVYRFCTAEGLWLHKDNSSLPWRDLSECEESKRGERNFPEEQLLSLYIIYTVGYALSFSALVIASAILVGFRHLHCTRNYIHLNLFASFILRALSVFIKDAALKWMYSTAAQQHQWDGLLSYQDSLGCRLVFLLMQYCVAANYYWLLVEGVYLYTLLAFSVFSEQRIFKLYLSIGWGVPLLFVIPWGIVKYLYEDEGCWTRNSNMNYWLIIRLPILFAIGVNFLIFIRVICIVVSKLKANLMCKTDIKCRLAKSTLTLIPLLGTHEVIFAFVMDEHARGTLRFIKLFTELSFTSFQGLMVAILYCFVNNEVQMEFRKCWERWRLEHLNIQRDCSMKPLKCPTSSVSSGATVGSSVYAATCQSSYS

Read-outs that look alike come from different tables or passages of the source. Numbered stars: 1 amine (or outer) side, 2 acyl side, 3 side chain; on linkers, the order of the positions; unused ones are H or OH. Side chains are listed from the residue outwards. Ends that are not written are not given here. * marks the point of attachment. γGlu = O=C(O)[C@H](CCC(=O)[*:2])N[*:1]; Palmitoyl = CCCCCCCCCCCCCCCC(=O)*

T2 sequence (P47871 26-477): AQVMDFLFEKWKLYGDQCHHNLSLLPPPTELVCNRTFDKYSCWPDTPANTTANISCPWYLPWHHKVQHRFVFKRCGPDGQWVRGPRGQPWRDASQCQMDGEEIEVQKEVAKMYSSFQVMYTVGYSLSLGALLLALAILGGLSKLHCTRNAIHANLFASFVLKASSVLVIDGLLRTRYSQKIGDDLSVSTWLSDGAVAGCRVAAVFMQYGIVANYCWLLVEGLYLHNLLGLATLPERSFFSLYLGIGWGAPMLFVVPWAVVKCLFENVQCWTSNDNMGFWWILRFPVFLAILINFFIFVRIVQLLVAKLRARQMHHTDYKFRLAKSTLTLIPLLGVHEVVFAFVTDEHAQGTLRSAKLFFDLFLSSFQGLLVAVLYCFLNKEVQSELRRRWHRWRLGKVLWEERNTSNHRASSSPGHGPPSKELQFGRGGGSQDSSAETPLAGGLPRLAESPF
Sequence of mouse glucagon receptor (Q61606 27-485): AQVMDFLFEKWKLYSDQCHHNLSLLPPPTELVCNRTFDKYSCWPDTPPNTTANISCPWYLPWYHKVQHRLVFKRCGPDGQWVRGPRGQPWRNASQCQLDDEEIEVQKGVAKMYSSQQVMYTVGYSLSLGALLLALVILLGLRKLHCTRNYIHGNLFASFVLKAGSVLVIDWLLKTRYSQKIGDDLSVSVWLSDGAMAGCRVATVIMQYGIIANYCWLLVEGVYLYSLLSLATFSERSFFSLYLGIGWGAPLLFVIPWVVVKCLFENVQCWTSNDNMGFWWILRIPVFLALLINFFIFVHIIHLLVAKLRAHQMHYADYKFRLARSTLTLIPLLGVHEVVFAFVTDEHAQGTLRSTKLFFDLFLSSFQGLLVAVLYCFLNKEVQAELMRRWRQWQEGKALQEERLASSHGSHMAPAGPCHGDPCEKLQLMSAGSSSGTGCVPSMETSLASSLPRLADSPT

B1: g848 (peptide)
peptide: HSQGTFTSDK([γGlu-Palmitoyl])SRYLDSERARDFVAWLEAGG-NH2
modifications: N-terminus assumed
SMILES: CCCCCCCCCCCCCCCC(=O)N[C@@H](CCC(=O)NCCCC[C@H](NC(=O)[C@H](CC(=O)O)NC(=O)[C@H](CO)NC(=O)[C@@H](NC(=O)[C@H](Cc1ccccc1)NC(=O)[C@@H](NC(=O)CNC(=O)[C@H](CCC(N)=O)NC(=O)[C@H](CO)NC(=O)[C@@H](N)Cc1c[nH]cn1)[C@@H](C)O)[C@@H](C)O)C(=O)N[C@@H](CO)C(=O)N[C@@H](CCCNC(=N)N)C(=O)N[C@@H](Cc1ccc(O)cc1)C(=O)N[C@@H](CC(C)C)C(=O)N[C@@H](CC(=O)O)C(=O)N[C@@H](CO)C(=O)N[C@@H](CCC(=O)O)C(=O)N[C@@H](CCCNC(=N)N)C(=O)N[C@@H](C)C(=O)N[C@@H](CCCNC(=N)N)C(=O)N[C@@H](CC(=O)O)C(=O)N[C@@H](Cc1ccccc1)C(=O)N[C@H](C(=O)N[C@@H](C)C(=O)N[C@@H](Cc1c[nH]c2ccccc12)C(=O)N[C@@H](CC(C)C)C(=O)N[C@@H](CCC(=O)O)C(=O)N[C@@H](C)C(=O)NCC(=O)NCC(N)=O)C(C)C)C(=O)O
Take B1: the “cAMP EC50 (assay 1)” value in [1] amounted to 2.77 nM; in the assay with human glucagon receptor [2] it was 0.000966 nM; with human GLP-1 receptor [3], 0.00942 nM.

B2: g777 (peptide)
peptide: HSQGTFTSDYSKYK([γGlu-Palmitoyl])DSERARDFVAWLVAGG-NH2
modifications: N-terminus assumed
SMILES: CCCCCCCCCCCCCCCC(=O)N[C@@H](CCC(=O)NCCCC[C@H](NC(=O)[C@H](Cc1ccc(O)cc1)NC(=O)[C@H](CCCCN)NC(=O)[C@H](CO)NC(=O)[C@H](Cc1ccc(O)cc1)NC(=O)[C@H](CC(=O)O)NC(=O)[C@H](CO)NC(=O)[C@@H](NC(=O)[C@H](Cc1ccccc1)NC(=O)[C@@H](NC(=O)CNC(=O)[C@H](CCC(N)=O)NC(=O)[C@H](CO)NC(=O)[C@@H](N)Cc1c[nH]cn1)[C@@H](C)O)[C@@H](C)O)C(=O)N[C@@H](CC(=O)O)C(=O)N[C@@H](CO)C(=O)N[C@@H](CCC(=O)O)C(=O)N[C@@H](CCCNC(=N)N)C(=O)N[C@@H](C)C(=O)N[C@@H](CCCNC(=N)N)C(=O)N[C@@H](CC(=O)O)C(=O)N[C@@H](Cc1ccccc1)C(=O)N[C@H](C(=O)N[C@@H](C)C(=O)N[C@@H](Cc1c[nH]c2ccccc12)C(=O)N[C@@H](CC(C)C)C(=O)N[C@H](C(=O)N[C@@H](C)C(=O)NCC(=O)NCC(N)=O)C(C)C)C(C)C)C(=O)O
With B2, the results for the cAMP EC50 (assay 1) (in [4]; with human glucagon receptor [5]; with human GLP-1 receptor [6]) were 4.53 nM, 0.00124 nM and 0.0274 nM, respectively.

B3: g731 (peptide)
peptide: HSQGTFTSDYSEYK([γGlu-Palmitoyl])DSRRAQDFVQWLVAGG-NH2
modifications: N-terminus assumed
SMILES: CCCCCCCCCCCCCCCC(=O)N[C@@H](CCC(=O)NCCCC[C@H](NC(=O)[C@H](Cc1ccc(O)cc1)NC(=O)[C@H](CCC(=O)O)NC(=O)[C@H](CO)NC(=O)[C@H](Cc1ccc(O)cc1)NC(=O)[C@H](CC(=O)O)NC(=O)[C@H](CO)NC(=O)[C@@H](NC(=O)[C@H](Cc1ccccc1)NC(=O)[C@@H](NC(=O)CNC(=O)[C@H](CCC(N)=O)NC(=O)[C@H](CO)NC(=O)[C@@H](N)Cc1c[nH]cn1)[C@@H](C)O)[C@@H](C)O)C(=O)N[C@@H](CC(=O)O)C(=O)N[C@@H](CO)C(=O)N[C@@H](CCCNC(=N)N)C(=O)N[C@@H](CCCNC(=N)N)C(=O)N[C@@H](C)C(=O)N[C@@H](CCC(N)=O)C(=O)N[C@@H](CC(=O)O)C(=O)N[C@@H](Cc1ccccc1)C(=O)N[C@H](C(=O)N[C@@H](CCC(N)=O)C(=O)N[C@@H](Cc1c[nH]c2ccccc12)C(=O)N[C@@H](CC(C)C)C(=O)N[C@H](C(=O)N[C@@H](C)C(=O)NCC(=O)NCC(N)=O)C(C)C)C(C)C)C(=O)O
As to B3, the cAMP EC50 (assay 1) in assay [4] was determined as 40.7 nM; in the assay with human glucagon receptor [5], 0.0277 nM; in the assay with human GLP-1 receptor [6] it was 0.0422 nM.

HSQGTFTSDKSSYLDSRSARDFVAWLEAGG (X10 = K(gE-palm); C-terminal amide) [G865]: the “cAMP EC50 (assay 1)” value in [7] stood at 22 nM; in the assay with human glucagon receptor [8], 0.0126 nM; in the assay with human GLP-1 receptor [9], 0.0083 nM. Also, the “cAMP EC50 (assay 2, 3.2% mouse serum albumin)” value with mouse glucagon receptor came out at 1.1 nM; with mouse GLP-1 receptor it was 0.096 nM. Besides, the “cAMP EC50 (assay 2, 3.2% rat serum albumin)” value with rat glucagon receptor turned out to be 87.1 nM. Further, the “cAMP EC50 (assay 2, 4.4% human serum albumin)” value with human GLP-1 receptor [10] was found to be 0.15 nM.

B4: g846 (peptide)
peptide: HSQGTFTSDYSEYK([γGlu-Palmitoyl])DSERARDFVAWLVAGG-NH2
modifications: N-terminus assumed
SMILES: CCCCCCCCCCCCCCCC(=O)N[C@@H](CCC(=O)NCCCC[C@H](NC(=O)[C@H](Cc1ccc(O)cc1)NC(=O)[C@H](CCC(=O)O)NC(=O)[C@H](CO)NC(=O)[C@H](Cc1ccc(O)cc1)NC(=O)[C@H](CC(=O)O)NC(=O)[C@H](CO)NC(=O)[C@@H](NC(=O)[C@H](Cc1ccccc1)NC(=O)[C@@H](NC(=O)CNC(=O)[C@H](CCC(N)=O)NC(=O)[C@H](CO)NC(=O)[C@@H](N)Cc1c[nH]cn1)[C@@H](C)O)[C@@H](C)O)C(=O)N[C@@H](CC(=O)O)C(=O)N[C@@H](CO)C(=O)N[C@@H](CCC(=O)O)C(=O)N[C@@H](CCCNC(=N)N)C(=O)N[C@@H](C)C(=O)N[C@@H](CCCNC(=N)N)C(=O)N[C@@H](CC(=O)O)C(=O)N[C@@H](Cc1ccccc1)C(=O)N[C@H](C(=O)N[C@@H](C)C(=O)N[C@@H](Cc1c[nH]c2ccccc12)C(=O)N[C@@H](CC(C)C)C(=O)N[C@H](C(=O)N[C@@H](C)C(=O)NCC(=O)NCC(N)=O)C(C)C)C(C)C)C(=O)O
For B4, the cAMP EC50 (assay 1) stood at 11.8 nM in [4], 0.0341 nM with human glucagon receptor [5] and 0.0438 nM with human GLP-1 receptor [6].

B5: g732 (peptide)
peptide: HGQGTFTSDYSKYK([γGlu-Palmitoyl])DSERARDFVAWLVAGG-NH2
modifications: N-terminus assumed
SMILES: CCCCCCCCCCCCCCCC(=O)N[C@@H](CCC(=O)NCCCC[C@H](NC(=O)[C@H](Cc1ccc(O)cc1)NC(=O)[C@H](CCCCN)NC(=O)[C@H](CO)NC(=O)[C@H](Cc1ccc(O)cc1)NC(=O)[C@H](CC(=O)O)NC(=O)[C@H](CO)NC(=O)[C@@H](NC(=O)[C@H](Cc1ccccc1)NC(=O)[C@@H](NC(=O)CNC(=O)[C@H](CCC(N)=O)NC(=O)CNC(=O)[C@@H](N)Cc1c[nH]cn1)[C@@H](C)O)[C@@H](C)O)C(=O)N[C@@H](CC(=O)O)C(=O)N[C@@H](CO)C(=O)N[C@@H](CCC(=O)O)C(=O)N[C@@H](CCCNC(=N)N)C(=O)N[C@@H](C)C(=O)N[C@@H](CCCNC(=N)N)C(=O)N[C@@H](CC(=O)O)C(=O)N[C@@H](Cc1ccccc1)C(=O)N[C@H](C(=O)N[C@@H](C)C(=O)N[C@@H](Cc1c[nH]c2ccccc12)C(=O)N[C@@H](CC(C)C)C(=O)N[C@H](C(=O)N[C@@H](C)C(=O)NCC(=O)NCC(N)=O)C(C)C)C(C)C)C(=O)O
For the molecule B5, the cAMP EC50 (assay 1) in assay [4] was determined as 29.4 nM; in the assay with human glucagon receptor [5], 0.0396 nM; in the assay with human GLP-1 receptor [6], 0.0232 nM.

The values are drawn from patent publication US20190185537A1 (AstraZeneca / MedImmune, published 2019).
